Assays:
[1] = molecular target: putative receptor proteins in brush border membrane vesicles (BBMV) from European corn borer (Ostrinia nubilalis) larval midgut (Ostrinia nubilalis); assay: homologous competition: unlabeled Cry1Ab against 0.5 nM 125I Cry1Ab on ECB BBMV
[2] = molecular target: putative receptor proteins in brush border membrane vesicles (BBMV) from European corn borer (Ostrinia nubilalis) larval midgut (Ostrinia nubilalis); assay: heterologous competition: unlabeled Cry2Aa at 1,000 nM against 0.5 nM 125I Cry1Ab on ECB BBMV

Substance | IC50 [1] [nM] | percent displacement of 125I Cry1Ab at 1,000 nM competitor [2] [%]
Cry1Ab protein (truncated Cry toxin) (from UniProt P0A370 29-612) | 3 | –
Cry2Aa protein (from UniProt P0A377 1-633) | – | < 50

Reference: patent US20130007924A1
